# Measured values: patent CN111303278A (JANSSEN VACCINES & PREVENTION BV, dated 2020)
# Molecular target: Sym-1789
# Test: ELISA, biotinylated peptide on avidin plate, mAb titrated
row,Binder,IC50 [µg/mL]
1,"CB017.5L (antibody, V domains shown) VH: QVQLVESGGGVVQPGRSLRLSCSASGFTFSVYAMHWVRQAPGQGLEWVAIIWYDGSNKYYADSVKGRFTISRDNSKETLYLQMNSLRVEDTAVYYCARDPIVGHTRDGLDVWGQGTTVTVSS VL: SYELTQPPSVSVSPGQTARVTCSGDAMAEQYTYWYQQKPGQAPVLIIFKDTERPSGIPERFSGSSSGTTVTLTISGVQTEDEADYYCQSTDSSGTSWVFGGGTKLTVL",~0.02
2,"CB030.1 (antibody, V domains shown) VH: QVQLVQSGAEMKRPGSSVKVSCKASGGTFSTFAINWVRQAPGQGFEWMGGVIPGFDSANYAQKFQGRLTMSADESTSTVYMELSSLRSDDTAVYYCAGNSGYCSGDSCAPNWGPGTLVTVSS VL: DIVMTQSPLSLPVTPGEPASISCRSSQSLVHSNGYSYLDWYLQKPGQSPQLLIYLGSNRPSGVPDRFSGSGSGTDFTLKISRVEAEDVGVYFCMQNLQTPTFGGGTKVEIK",~0.02
